In the nanobody polyreactivity screen of Harvey et al. (2022):

Test: yeast display, Sf9 membrane polyspecificity reagent, FACS + sequencing; frameworks hold sequencing errors
Procedure, shortened: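 Synthetic nanobody libraries on Saccharomyces cerevisiae BJ5465 were galactose-induced for 36–48 hours, stained 1 hour at 4 °C with 10% biotinylated, detergent-solubilized Sf9 membrane reagent and enriched on streptavidin microbeads. FACS then separated cells into low and high (top ~1%) gates by anti-HA (expression) and streptavidin (reagent binding) fluorescence. Genes were colony-PCR amplified, MiSeq 2 × 250 sequenced and CDR-length filtered. A clone's polyreactivity label is that of its gate of origin.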

Sequence	polyreactivity (PSR sort gate)
QVQLVESGGGLVQAGGSLRLSCAASGSTFKYYTMGWYIQAPGKERELVAAITWRGGSTYYADSVKGRFTISRDNAKNTVYLQMNSLKPEDTAVYYCNVLQRYGASRYDYWGQGTQVTVSS	high polyreactivity
QVQLVESGGGLVQAGGSLRLSCAASGSTFKYYTMGWYIQAPGKERELVAGITLSGTTTYYADSEKGRFTISRDNAKNTVYLQMNSLKPEDTAVYYCAADYYHDFNAYYYWGQGTQVTVSS	low polyreactivity
QVQLVESGGGLVQAGGSLRLSCAASGSTFLAYAMGWYRQAPGKERELVAAISSSGGRPYYADSVKGRFTISRDYAKNTVYLQMNSLNPEDTAVYYCAARYKNRGGFGYWGQGTRVTVSS	high polyreactivity
QVQLVESGGGLVQAGGSLRLSCAASGSTFLFNGMGWYRQAPGKERELVAAISRSGGRTYYADSVKGRFTISRDNAKNTVYLQMNSLKPEDTAVYYCAAKYRLSGGYGVDYWGQGTQVTVSS	high polyreactivity
QVQLVESGGGLVQAGGSLRLSCAASGSTFLGYVMGWSRQAPGKERELVAAITRSGGRTYYADSVKGRFTISRDNAKNTVYLQMTSLNPEDTAVYYCAALRGPSFHGYGYWGQGTQVTVSS	high polyreactivity
QVQLVESGGGLVQAGGSLRLSCAASGSTFLKYTMGWYRQAPGKDRELVAGITRSSGSTYYADSVKGRFTISRDNAKNTVYLHMNSLKPEDTAVYYCAATVYLYTDLAYYWYGYWGQGTQVTVAS	high polyreactivity
QVQLVESGGGLVQAGGSLRLSCAASGSTFLLYAMGWYRQAPGKERELVATISWGGDGTYYADSVKGRFTISRDHAKNTDYLQMNSLKPDDTAVYDCAAQSYLVQFYFLYYYWGQGTQVTVSS	low polyreactivity
QVQLVESGGGLVQAGGSLRLSCAASGSTFLRNAMGWYRQAPGKERELVAAISLGSGSTYYADSVKGRFTISRDNAKNTVYLQMNSLKPEDTAVYYCAADVSRWLDYGYDYWGQVTQVTVSS	low polyreactivity
QVQLVESGGGLVQAGGSLRLSCAASGSTFLRYAMGWYRQAPGKERELVATISRCDDGTYYADSVKGRFKISRDNEKNTVFLQMNSLKPEDNAVYYCDARSWYLYYYWGQGTQVTVSS	low polyreactivity
QVQLVESGGGLVQAGGSLRLSCAASGSTFLSNAMGWYRQAPGKERELVAAITIGGSTNYADSVKGRFTISRDNAKNTVYLQMNSLKPEDTAFYFCAADWYYDYAELTRDYDYWGQGTQVTVSS	low polyreactivity
QVQLVESGGGLVQAGGSLRLSCAASGSTFLTNAMGWYRQAPGKERELGAAITWSTGSTYYADSVKGRFTISRDNAKNTVYLQMNSLKPEDTAVYYCNARSEVSYWWGGYWGQGTQVTVSS	low polyreactivity
QVQLVESGGGLVQAGGSLRLSCAASGSTFLTNAMGWYRQAPGKERELVAAITWSGTSTYADSVKGRFTISRDNAKNTVYLQMNSLKPDDTAVYYCAAPILSFPSPYVQYDYWGQGTQVTVSS	low polyreactivity
QVQLVESGGGLVQAGGSLRLSCAASGSTFLTNTMGWYRQAPGKERELVAAITLRGGRTYYADSVKGRFTISRDNAKNTVYLQMNSLKPEDTAVYYCNARNYYYPSDRDYWGQGTQVTVSS	low polyreactivity
QVQLVESGGGLVQAGGSLRLSCAASGSTFLVNAMGWYRQAPGKERELVAAITSGGDTNYADSVKGRFTISHDNAKNTVYLQMNSLKPEDTEVYYCATDYFNYRYFDFRWYYYWGQGTQVTVSS	high polyreactivity
QVQLVESGGGLVQAGGSLRLSCAASGSTFLVYAMGWSRQAPGKERELVAAIRGGGSTNYADSVKGRFTISRDNAKNTVYLQMNSLKPEDTGVYYCAAYLLYTPSMDYWGQGTQVTVSS	low polyreactivity
QVQLVESGGGLVQAGGSLRLSCAASGSTFLWNAMGWYRQAPAKERELVAAISYSGGSTYYADSVKGRFTISRDNAMNTVYLQKNSLKPEDTAFYYCAKEWFYDPYPPGYDSWGQGPQVTVSS	low polyreactivity
QVQLVESGGGLVQAGGSLRLSCAASGSTFLWYAMGWYTQAPGKERELVATISGSGGSTYYADSVKGRFTISRDNAKNTVYLQMNSLKPEDTAGYYCAAGTLVQRSRWVTFSAYDGDYWGQGTQVTVSS	high polyreactivity
QVQLVESGGGLVQAGGSLRLSCAASGSTFLYVMGWYRQAPGKERELVAAISESGGSTYYADSVKGRFTISRDNAKNTVYLQMNSLKPEDTAVYYCAADLQTGLQYRYYRVDYWGQGTQVTVSS	low polyreactivity
QVQLVESGGGLVQAGGSLRLSCAASGSTFLYYAKGWSRQAPGKERELVAAISGSGGSTYYADSVKGRFTISRDNAKNTVYLQMNSLKPEDTAVYYCNAVARRHGLGPYDYWGQGTQVTVSS	high polyreactivity
QVQLVESGGGLVQAGGSLRLSCAASGSTFLYYAMGWYRPAPGKESELVAGISASGGSTYYADSVKGRFTISRDNAKITVYLQMNSLKPEDTAVYYCARYAGFPYTQCDYWGQGTQVTVSS	high polyreactivity
QVQLVESGGGLVQAGGSLRLSCAASGSTFLYYAMGWYRQAPGKEREFVAAISISGGSTYYADSVKGRFTISRDNAKNTVYLHMNSLKPEDTAVYYFAARKKEYKPGNYWGQGTQVTVSS	low polyreactivity
QVQLVESGGGLVQAGGSLRLSCAASGSTFLYYAMGWYRQAPGKERELVAAIDWSDTSTYYADSVKGRFTISRDNAKNTVYLQMNSLKPEDTAVYYCAADTYLVDGDYWGQGTQETVSS	low polyreactivity

Sequence	polyreactivity (PSR sort gate)
QVQLVESGGGLVQAGGSLRLSCAASGSTFLYYAMGWYRQAPGKERELVAVISWSGVSTYYADSVKGRFTISRDNAKNTVYLQMNSLKPEDTPVYYCNTGNQYIRTYGYWGQGSQVTVSS	low polyreactivity
QVQLVESGGGLVQAGGSLRLSCAASGSTFLYYDMGWYRQAPGKERELVADITWSGSGTYYADSVKGRFTISRDNAKNTVYLQMNSLKPEDTAVYYCDADDTWRGDQYFYSYDYWGQGTQVTVSS	low polyreactivity
QVQLVESGGGLVQAGGSLRLSCAASGSTFNFNVMGWYRQAPGKERELVAAISSSGGNTYYADSVKGRFTISRDNAKNTVYLQMNSLKPEDTAVYYCAAEYEEWYSVFLYDYWGQGTQVTVSS	high polyreactivity
QVQLVESGGGLVQAGGSLRLSCAASGSTFNFYAMGWYRQAPGKEREFVAAITSSGDSTYYADSVKGRFTISRDNAKNTVYLQLNSLKPEDTAVYYCAARLRWRYSYDYWGQGTQVTVSS	high polyreactivity
QVQLVESGGGLVQAGGSLRLSCAASGSTFNGYAMGWYRQAPGKERELVAAITSSGSRTYYADSVKGRFTISRDNAKNTVYLQMNSLKPVDTAVYYCNAGKLARTYFRSSSVSPGDYWGQGTQVTVSS	high polyreactivity
QVQLVESGGGLVQAGGSLRLSCAASGSTFNHYAMGWYRQAPGKDRELVAAITKSGGSTYADSVKGRFTISRDNAKNSVYLQMNSLKPEDTAVYFCAAGRRKYGTKGRGDYWGQGTQVTVSS	low polyreactivity
QVQLVESGGGLVQAGGSLRLSCAASGSTFNHYTMGWYRQAPGKERELVAAISSRGGGTYYADSVKGRFTISRDNAKNTVYLQMNSLKPEDTAVYYCAALISSGIRHSRDYWGQGTQVTVSS	high polyreactivity
QVQLVESGGGLVQAGGSLRLSCAASGSTFNINGMGWYRQAPGKERELVASITGSGGNTYYADSVKGRFTISRDNAKNTVYLQMNSLKPEDTAVYYCNTTLYTGQPGRTFDYWGQGTQVTVSS	low polyreactivity
QVQLVESGGGLVQAGGSLRLSCAASGSTFNKYTMGWYRQAPGKERELVAAISSIGGSTYYADSVKGRFTISRDNAKNTVYLQMNSLKPEDTAVYYCAAPYPIGHDWGQGTQVTVSS	low polyreactivity
QVQLVESGGGLVQAGGSLRLSCAASGSTFNLYAMGWYRQAPGKERELVAAISDGDSSTYYADSVKGRFTISRDNAKNTVYLQMNSLKPEDTAVYYCNARDDVYLITPYFLVYVNLDYWGQGTQVTVSS	low polyreactivity
QVQLVESGGGLVQAGGSLRLSCAASGSTFNLYAMGWYRQAPGKERELVASISRSGVSTYYADSVKGRFTISRDNAKNTVYLQMNSLKPEDTAVYYCAVDKVLYRLYTGMDYWGQGTQVTVSS	low polyreactivity
QVQLVESGGGLVQAGGSLRLSCAASGSTFNNYAMGSYRQAPGKVREFVAAINGSGGSTYYADSVKGRFTISRDNAKNTVYLQLNSRKPEDPAVYYCAADVSATAYYDLMDYWVQGTQVTVSS	low polyreactivity
QVQLVESGGGLVQAGGSLRLSCAASGSTFNQNAMGWYRQATGKERELVAAITVDGSSTYYADSVKGRFTISRDNAKNTVYLQMNSLKPEDTAVYYCAAGYSARSSGYTGGYDYWGQGTQVTVSS	high polyreactivity
QVQLVESGGGLVQAGGSLRLSCAASGSTFNRYAMGWYRQAPGKERELVASITTSDSTNYADSVNGRFTISRDNANNTVFLQINSLNPEDTAVYYCNAEVRGVWYTYDYWGQGTHVTVSS	low polyreactivity
QVQLVESGGGLVQAGGSLRLSCAASGSTFNTYAMGWYRQAPGKERELVASIRLRGGSTYYADSVKGRFTISRDNAKNTVYLQMNSLKPEDTAVYYCAARTWPWVLGGTQDDYWGQGTQVTVSS	low polyreactivity
QVQLVESGGGLVQAGGSLRLSCAASGSTFNVYAMGWYRQAPGKERDLVAAIDSGDSTNYADSVKGRFTISRDNAKNTVYLEMNSLKPEDTAVYYCAVGYWDSRYRYDWPNSDYWGQGTQVTVSS	low polyreactivity
QVQLVESGGGLVQAGGSLRLSCAASGSTFNVYGLGWYRQAPGKERELVAAINRDGITYADSVKGRFTISRDNAKNTVYLQMNSLKPEDTAVYYCAAGYSPYKGSAGYYWGQGTQVTVSS	low polyreactivity
QVQLVESGGGLVQAGGSLRLSCAASGSTFNWDAMGWYRQAPGQERELVAAISKSGGTTYYADSVKGRFTISRDNAKNTVYLQMNSLKPEDTAVYYCAAVRRYHSYPDGGYWGQGTQVTVSS	high polyreactivity
QVQLVESGGGLVQAGGSLRLSCAASGSTFNWNAMRWYRQPPGKERELVAAITSSGARTRYADSVKGRFTISRDNAKNTVYLQMNSLKPEDTAVYYCAAYVYISPSGYYYWGLGTQVTVSS	low polyreactivity
QVQLVESGGGLVQAGGSLRLSCAASGSTFNWYAMGWYRQAPGKEMELVAAITSTGGSTYADSVKGRFTISRDNAKNTVYLQMNSLKPEDTAVYYCNVDTSSPSRRDYDYWGQGTQVTVSS	low polyreactivity
QVQLVESGGGLVQAGGSLRLSCAASGSTFPFYAMGWYRQAPGKERELVAAIRYTGNTYYADSVKGRFTISRDNAKNTVFLLMISLKPEDTAVYYCAADADYWAYGYWGHGTQVTVSS	low polyreactivity
